Positions count from the first letter of the chain named. Names and notes keep the numbering of the source. Values joined by “and” are separate entries in the source; they are usually repeats but may differ in a detail not shown here. Identical values can stand only once. Values belong to the binder of their own block, whether it stands above or below them.
Assays:
[1] = biological target: T1, mFc-hNKG2D (human, UniProt P26718 73-216); test: SPR Biacore 8K 37 C; mFc-hNKG2D captured on anti-mFc chip, TriNKET as analyte; 1:1 kinetic fit; after 4 wks 40 C in phosphate/citrate/NaCl pH 7.8, n=2
T1 construct: extracellular domain; Made in house (Dragonfly Tx); the order of tag and ECD follows the name mFc-hNKG2D; also called mFc-tagged human NKG2D; not shown: mouse Fc tag
T1 sequence (looked up): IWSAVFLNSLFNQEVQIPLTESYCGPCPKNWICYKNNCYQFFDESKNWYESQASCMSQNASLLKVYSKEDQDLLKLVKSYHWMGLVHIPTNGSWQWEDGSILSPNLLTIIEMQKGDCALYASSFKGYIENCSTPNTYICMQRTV

[2] = biological target: T2, Human CLEC12A-His (human, UniProt Q5QGZ9 65-265); test: SPR Biacore 8K 37 C; TriNKET captured on anti-hFc chip, hCLEC12A-His as analyte; 1:1 fit; after 4 wks 40 C in phosphate/citrate/NaCl pH 7.8, n=2
T2 construct: Recombinant soluble protein made in house (Dragonfly Tx); The hCLEC12A spot of the HuProt array is written under this molecule as well; also called hCLEC12A-His; hCLEC12A; not shown: His tag
T2 sequence: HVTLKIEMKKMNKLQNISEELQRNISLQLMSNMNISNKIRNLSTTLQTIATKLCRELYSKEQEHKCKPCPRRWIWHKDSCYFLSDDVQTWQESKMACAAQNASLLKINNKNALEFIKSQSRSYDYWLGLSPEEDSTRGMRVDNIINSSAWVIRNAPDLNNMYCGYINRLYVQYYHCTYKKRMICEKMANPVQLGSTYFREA

[3] = biological target: T2, Human CLEC12A-His; test: SPR Biacore 8K 37 C; TriNKET captured on anti-hFc chip, hCLEC12A-His as analyte; classical 1:1 fit
[4] = biological target: T3, Cynomolgus CD64 (cynomolgus monkey, UniProt A0A2K5U901 33-309, Probably biotinylated for capture, as in the sister examples (p-1094).); test: SPR, cynomolgus CD64 captured
T3 construct: Bought recombinant receptor; also called cFcγRI; Cynomolgus CD64 (FcγRI); not shown: The vendor's biotinylation and purification tag

[5] = biological target: T4, Human CLEC12A-His (human, UniProt Q5QGZ9 65-265); test: SPR, untreated CLEC12A; average of 3 replicates
T4 construct: Recombinant soluble protein made in house; also called hCLEC12A-His; hCLEC12A; not shown: His tag
T4 sequence: T2 sequence

[6] = biological target: T5, Human CLEC12A-His (recombinant, K244 WT) (human, UniProt Q5QGZ9 65-265); test: SPR, two-state fit; fully purified protein after low pH hold
T5 construct: Made in house (Dragonfly Tx); also called hCLEC12A; hCLEC12A-His; not shown: His tag
T5 sequence: T2 sequence

[7] = biological target: T6, Human CD64 (FcγRI) (human, UniProt P12314 16-288, biotinylated); test: SPR 25C, average
T6 construct: Bought recombinant receptor; also called hFcγRI; Human FcγRI

[8] = biological target: T7, Cynomolgus CD64 (FcγRI) (cynomolgus monkey, UniProt A0A2K5U901 33-309, Biotinylated and captured on the CAP chip (p-1094); the biotin site is not stated.); test: SPR 25C, average
T7 construct: Bought recombinant receptor; also called cFcγRI; Cynomolgus FcγRI; not shown: The vendor's biotinylation and purification tag (ACRO FCA-C82E8)

[9] = biological target: T8, mFc-hNKG2D (recombinant mFc-tagged human NKG2D dimer) (human, UniProt P26718 73-216); test: SPR 37C, mFc-hNKG2D captured, steady state fit
T8 construct: extracellular domain; Made in house; not shown: mouse Fc tag
T8 sequence (looked up): T1 sequence (looked up)

[10] = biological target: T5, Human CLEC12A-His (recombinant, K244 WT); test: SPR, two-state fit (ka1); control sample
[11] = biological target: T9, Human CD16a V158 (FcγRIIIa V158) (human, UniProt P08637 17-208, biotinylated); test: SPR; control sample
T9 construct: Bought recombinant receptor; also called hCD16aV; hFcγRIIIa V158

[12] = biological target: T8, mFc-hNKG2D (recombinant mFc-tagged …); test: SPR; control sample
[13] = biological target: T5, Human CLEC12A-His (recombinant, K244 WT); test: SPR, two-state fit; control sample
[14] = biological target: T10, recombinant human CLEC12A-His (human, UniProt Q5QGZ9 65-265); test: SPR 37C, average
T10 construct: also called hCLEC12A-His; hCLEC12A
T10 sequence: T2 sequence

[15] = biological target: T11, recombinant human CD32a R131 (human, UniProt P12318 36-218, limits assumed, biotinylated); test: SPR 25C, steady state, average
T11 construct: also called FcγRIIa R131
T11 sequence (looked up): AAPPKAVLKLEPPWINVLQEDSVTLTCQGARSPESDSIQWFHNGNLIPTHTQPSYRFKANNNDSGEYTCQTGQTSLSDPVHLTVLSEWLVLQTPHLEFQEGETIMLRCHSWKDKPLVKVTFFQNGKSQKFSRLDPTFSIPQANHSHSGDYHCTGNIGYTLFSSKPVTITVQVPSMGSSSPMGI

[16] = biological target: T10, recombinant human CLEC12A-His; test: SPR 37C, TriNKET captured on anti-hFc

T9 sequence (P08637 17-208 F176V limits assumed): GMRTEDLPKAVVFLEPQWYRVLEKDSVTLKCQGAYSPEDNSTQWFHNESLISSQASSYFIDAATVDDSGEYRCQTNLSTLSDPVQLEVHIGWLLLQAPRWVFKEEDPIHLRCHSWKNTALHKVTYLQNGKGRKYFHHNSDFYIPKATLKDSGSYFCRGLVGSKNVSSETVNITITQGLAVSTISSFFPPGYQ
T7 sequence (A0A2K5U901 entry or part of it limits assumed): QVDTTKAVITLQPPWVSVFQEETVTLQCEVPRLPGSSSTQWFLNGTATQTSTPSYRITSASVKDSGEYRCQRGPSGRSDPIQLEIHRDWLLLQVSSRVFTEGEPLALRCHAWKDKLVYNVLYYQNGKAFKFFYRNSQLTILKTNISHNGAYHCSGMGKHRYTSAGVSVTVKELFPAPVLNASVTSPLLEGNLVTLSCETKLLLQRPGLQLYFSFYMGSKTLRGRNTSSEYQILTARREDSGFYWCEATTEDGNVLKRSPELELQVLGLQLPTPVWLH
T3 sequence (A0A2K5U901 entry or part of it limits assumed): as above
T6 sequence (P12314 16-288 limits assumed): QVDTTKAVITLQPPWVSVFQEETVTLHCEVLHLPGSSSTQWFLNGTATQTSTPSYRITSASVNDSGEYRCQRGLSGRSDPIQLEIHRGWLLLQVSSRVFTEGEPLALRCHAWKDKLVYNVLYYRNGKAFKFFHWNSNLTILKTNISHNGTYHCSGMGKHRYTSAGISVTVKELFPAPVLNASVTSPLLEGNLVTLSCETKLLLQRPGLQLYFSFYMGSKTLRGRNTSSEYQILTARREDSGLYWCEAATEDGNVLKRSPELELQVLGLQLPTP

B1: F3'-1602 TriNKET (bispecific antibody, human IgG1, kappa)
chain: QLQLQESGPGLVKPSETLSLTCTVSGFSLTNYGLHWIRQPPGKCLEWIGVIWSGGKTDYNPSLKSRVTISKDTSKNQFSLKLSSVQAADTAVYYCAKYDYDDSLDYWGQGTLVTVSSGGGGSGGGGSGGGGSGGGGSDIQMTQSPSSLSASVGDRVTITCHASQNINFWLSWYQQKPGKAPKLLIYEASNLHTGVPSRFSGSGSGTRFTLTISSLQPEDIATYYCQQSHSYPLTFGCGTKLEIKGSDKTHTCPPCPAPELLGGPSVFLFPPKPKDTLMISRTPEVTCVVVDVSHEDPEVKFNWYVDGVEVHNAKTKPREEQYNSTYRVVSVLTVLHQDWLNGKEYKCKVSNKALPAPIEKTISKAKGQPREPRVYTLPPCRDELTKNQVSLTCLVKGFYPSDIAVEWESNGQPENNYKTTPPVLVSDGSFTLYSKLTVDKSRWQQGNVFSCSVMHEALHNHYTQKSLSLSPG
heavy: EVQLVESGGGLVKPGGSLRLSCAASGFTFSSYSMNWVRQAPGKGLEWVSSISSSSSYIYYADSVKGRFTISRDNAKNSLYLQMNSLRAEDTAVYYCARGAPIGAAAGWFDPWGQGTLVTVSSASTKGPSVFPLAPSSKSTSGGTAALGCLVKDYFPEPVTVSWNSGALTSGVHTFPAVLQSSGLYSLSSVVTVPSSSLGTQTYICNVNHKPSNTKVDKKVEPKSCDKTHTCPPCPAPELLGGPSVFLFPPKPKDTLMISRTPEVTCVVVDVSHEDPEVKFNWYVDGVEVHNAKTKPREEQYNSTYRVVSVLTVLHQDWLNGKEYKCKVSNKALPAPIEKTISKAKGQPREPQVCTLPPSRDELTENQVSLTCLVKGFYPSDIAVEWESNGQPENNYKTTPPVLDSDGSFFLYSWLTVDKSRWQQGNVFSCSVMHEALHNHYTQKSLSLSPG
light: DIQMTQSPSSVSASVGDRVTITCRASQGISSWLAWYQQKPGKAPKLLIYAASSLQSGVPSRFSGSGSGTDFTLTISSLQPEDFATYYCQQGVSFPRTFGGGTKVEIKRTVAAPSVFIFPPSDEQLKSGTASVVCLLNNFYPREAKVQWKVDNALQSGNSQESVTEQDSKDSTYSLSSTLTLSKADYEKHKVYACEVTHQGLSSPVTKSFNRGEC
notes: Trispecific F3' format: CLEC12A scFv-Fc paired with NKG2D Fab-Fc; Stressed and control samples of the stability studies are the same molecule; also called AB0237
Kd [1]: 869 nM | koff [1]: 0.133 s⁻¹ | kon [1]: 153000 M⁻¹ s⁻¹ | Kd [2]: 1.14 nM | koff [2]: 0.000948 s⁻¹ | kon [2]: 829000 M⁻¹ s⁻¹ | Kd [3]: 0.8 nM | koff [3]: 0.000895 s⁻¹ | kon [3]: 1.11e+06 M⁻¹ s⁻¹

B4: F3'-1602 TriNKET (other)
chain: B1 chain
heavy: B1 heavy
light: B1 light
notes: CLEC12A scFv-Fc, NKG2D A49MI Fab-Fc, human IgG1 Fc; also called AB0237
Kd [14]: 1.2 nM | koff [14]: 0.000933 s⁻¹ | kon [14]: 779000 M⁻¹ s⁻¹ | Kd [15]: 1400 nM | Kd [16]: 0.58 nM and 0.59 nM and 0.57 nM and 0.6 nM | koff [16]: 0.000494 s⁻¹ and 0.000489 s⁻¹ and 0.000499 s⁻¹ | kon [16]: 854000 M⁻¹ s⁻¹ and 833000 M⁻¹ s⁻¹ and 863000 M⁻¹ s⁻¹ and 826000 M⁻¹ s⁻¹

Next, values leading:

Kd [4]: 2.2 nM and 1.5 nM and 1.9 nM and 2.1 nM | koff [4]: 0.00012 s⁻¹ and 0.00011 s⁻¹ | kon [4]: 54000 M⁻¹ s⁻¹ and 80000 M⁻¹ s⁻¹ and 57000 M⁻¹ s⁻¹ and 55000 M⁻¹ s⁻¹ | Kd [5]: 1.65 nM | koff [5]: 0.00115 s⁻¹ | kon [5]: 698000 M⁻¹ s⁻¹
B2: AB0192 TriNKET (other)
chain: EVQLVESGGGVVQPGGSLRLSCAASGFTFNAFGMHWVRQAPGKCLEWVAFISSGSTSIYYANTVKGRFTISRDNSKNTLYLQMNSLRAEDTAVYYCARDGYPTGGAMDYWGQGTSVTVSSGGGGSGGGGSGGGGSGGGGSDIQMTQSPSSLSASVGDRVTITCKASQDIYNYLSWFQQKPGKAPKPLIYRANILVSGVPSRFSGSGSGQDYTFTISSLQPEDIATYYCLQFDAFPFTFGCGTKLEIKGSDKTHTCPPCPAPELLGGPSVFLFPPKPKDTLMISRTPEVTCVVVDVSHEDPEVKFNWYVDGVEVHNAKTKPREEQYNSTYRVVSVLTVLHQDWLNGKEYKCKVSNKALPAPIEKTISKAKGQPREPRVYTLPPCRDELTKNQVSLTCLVKGFYPSDIAVEWESNGQPENNYKTTPPVLVSDGSFTLYSKLTVDKSRWQQGNVFSCSVMHEALHNHYTQKSLSLSPG
heavy: B1 heavy
light: B1 light
notes: the condition stands under assay; also called AB0192 Lot AB0192-005

Kd [6]: 0.53 nM | Kd [7]: 5.1 nM | koff [7]: 0.00023 s⁻¹ | kon [7]: 46000 M⁻¹ s⁻¹ | Kd [8]: 1.5 nM | koff [8]: 8.1e-05 s⁻¹ | kon [8]: 55000 M⁻¹ s⁻¹ | Kd [9]: 873 nM and 894 nM and 885 nM | kon [10]: 8.87e+06 M⁻¹ s⁻¹ | Kd [11]: 322 nM | koff [11]: 0.0278 s⁻¹ | kon [11]: 86400 M⁻¹ s⁻¹ | Kd [12]: 797 nM | koff [12]: 0.135 s⁻¹ | kon [12]: 169000 M⁻¹ s⁻¹ | Kd [13]: 1 nM
B3: AB0089 TriNKET (bispecific antibody, human IgG1, kappa)
chain: B1 chain with S53V, K56A, K71V, Y98G, D101G, S103T, R207D, I220F
heavy: B1 heavy
light: B1 light
notes: F3' format heterodimer of three chains; human IgG1 Fc with EW-RVT and Y349C/S354C mutations; also called AB0089 Lot AB0089-002; CLEC12A TriNKET AB0089

Reference: patent publication US20220119534A1 (DRAGONFLY THERAPEUTICS, published 2022)
